Test results published in publication PMC3320602.

Target: HIV-1 JR-FL envelope glycoprotein (gp120 and gp41) on GFP-labelled Env-pseudotyped particles (HIV-1 isolate JR-FL)

Substance: tetrameric CD4-IgG2 molecule (PRO 542) (from UniProt P01730 26-396; P01730 26-396) (Fc fusion)
- IC50 of inhibition of JR-FL infection of TZM-bl cells (luciferase), cell-cell transmission from infected PBMC against cell-free virus; the pair blocked is m1+m3: 40 fold
